From article PMC11880984, “Altered O‐glycosylation of β1‐adrenergic receptor N‐terminal single‐nucleotide variants modulates receptor processing and functional activity” (The Febs Journal, 2024)
Values belong to the substance of their own block, whether it stands above or below them.

How the values were obtained:
[1] = Western blot, N-terminal cleavage, CHO-ldlD cells
[2] = Flow cytometry, surface full-length receptor, cMyc antibody, HEK293i; conditions: control: S49 (WT) variant
[3] = Western blot, N-terminal cleavage, rat cardiomyocytes; conditions: glycan lost
[4] = molecular target: human β1-adrenergic receptor S49G389 variant (human) (UniProt P08588)
[5] = molecular target: human β1-adrenergic receptor G49R389 variant (human) (UniProt P08588)
[6] = molecular target: human β1-adrenergic receptor G49G389 variant (human) (UniProt P08588)
[7] = Western blot, cleavage at R31↓L32; HEK293, CHO-K1, NRVM; conditions: glycan lost; control: S49 (WT) variant
[8] = Western blot, P52↓L53 cleavage in isolated HEK293i membranes; conditions: glycan lost; control: S49 (WT) variant

β-arrestin2 fused to Renilla luciferaseII, sequence (P32121 whole entry, the tested form may be a part): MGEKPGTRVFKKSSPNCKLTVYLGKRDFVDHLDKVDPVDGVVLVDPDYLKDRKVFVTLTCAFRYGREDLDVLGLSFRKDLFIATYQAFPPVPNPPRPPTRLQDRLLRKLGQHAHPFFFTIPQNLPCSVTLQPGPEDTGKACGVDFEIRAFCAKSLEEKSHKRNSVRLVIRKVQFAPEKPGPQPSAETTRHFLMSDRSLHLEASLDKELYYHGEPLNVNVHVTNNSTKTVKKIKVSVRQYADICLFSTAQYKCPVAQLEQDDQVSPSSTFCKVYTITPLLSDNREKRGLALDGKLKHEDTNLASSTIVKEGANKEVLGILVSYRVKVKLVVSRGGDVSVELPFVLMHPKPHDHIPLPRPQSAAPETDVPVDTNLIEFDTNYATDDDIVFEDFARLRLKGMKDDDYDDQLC
human β1-adrenergic receptor G49R389 variant (human), sequence (P08588 other isoform, or with tags, fused parts or gaps S49G | R389 (the paper's WT allele at rs1801253) | mutant): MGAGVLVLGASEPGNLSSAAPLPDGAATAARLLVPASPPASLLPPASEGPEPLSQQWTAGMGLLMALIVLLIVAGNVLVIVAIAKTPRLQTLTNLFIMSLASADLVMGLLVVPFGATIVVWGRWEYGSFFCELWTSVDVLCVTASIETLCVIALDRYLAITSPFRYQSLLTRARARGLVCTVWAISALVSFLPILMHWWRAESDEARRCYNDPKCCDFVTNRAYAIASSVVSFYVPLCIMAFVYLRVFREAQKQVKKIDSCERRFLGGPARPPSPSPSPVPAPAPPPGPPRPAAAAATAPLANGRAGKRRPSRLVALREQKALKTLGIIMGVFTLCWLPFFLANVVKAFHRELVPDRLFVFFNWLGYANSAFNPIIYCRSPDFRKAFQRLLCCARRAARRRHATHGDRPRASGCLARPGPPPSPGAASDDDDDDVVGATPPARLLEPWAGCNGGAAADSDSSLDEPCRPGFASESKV
human β1-adrenergic receptor S49G389 variant (human), sequence (P08588 whole entry, change not shown): as the sequence (P08588 other isoform, or with tags, fused parts or gaps S49G | R389 (the paper's WT allele at rs1801253) | mutant) above, with G49S, R389G counted along it
human β1-adrenergic receptor G49G389 variant (human), sequence (P08588 whole entry S49G): as the sequence (P08588 other isoform, or with tags, fused parts or gaps S49G | R389 (the paper's WT allele at rs1801253) | mutant) above, with R389G counted along it

Substance: human β1‐adrenergic receptor (hβ1AR): GalNAc only (Tn)
other: proteolytic processing ([1]; glycan changed form, control: S49 (WT) in CHO-ldlD with Gal + GalNAc): increases
other: proteolytic processing ([1]; glycan changed form, control: T29 variant in CHO-ldlD with Gal + GalNAc): no change

Substance: human β1‐adrenergic receptor (hβ1AR): T29 variant
expression_or_secretion ([2]; glycan gained): increases

Substance: human β1‐adrenergic receptor (hβ1AR): no GalNAc, no Gal
other: proteolytic processing ([1]; glycan lost, control: S49 (WT) in CHO-ldlD with Gal + GalNAc): increases

Substance: human β1‐adrenergic receptor (hβ1AR): Galnt2 KO
other: proteolytic processing ([3]; control: S49 (WT) in WT NRVMs): increases
other: proteolytic processing ([3]; control: T29 variant in WT NRVMs): no change

E max of isoproterenol-induced β-arrestin2 recruitment to the plasma membrane, enhanced bystander BRET (β-arrestin2-RlucII with rGFP-CAAX) in HEK293S cells, normalised to S49R389 [4]: 89.4 % WT E max
E max of isoproterenol-induced β-arrestin2 recruitment to the plasma membrane, enhanced bystander BRET (β-arrestin2-RlucII with rGFP-CAAX) in HEK293S cells, normalised to S49R389 [5]: 97.8 % WT E max
E max of isoproterenol-induced β-arrestin2 recruitment to the plasma membrane, enhanced bystander BRET (β-arrestin2-RlucII with rGFP-CAAX) in HEK293S cells, normalised to S49R389 [6]: 83.3 % WT E max
Substance: β-arrestin2 fused to Renilla luciferaseII (from UniProt P32121 1-409) (natural protein)

Substance: human β1‐adrenergic receptor (hβ1AR): G49 variant
other: proteolytic processing [7]: no change
expression_or_secretion ([2]; glycan lost): no change
other: proteolytic processing [8]: increases
